Reference: the supplement of paper PMC10567573

B1: KLHL13 (parent)
chain: TGEFLKLPFERLAFVLSSNSLKHC

Variants of: B1
Assay: protein stability index of a GFP-peptide fusion (GPS, HEK-293T) (PSI 1-6); higher = more stable
Conditions: c terminus: a fixed tail appended
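Further: lentivirally expressed fusions sorted by FACS into six bins by GFP to DsRed ratio, PSI derived from sequencing read proportions per bin multiplied by bin number.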

Q: For TGEFLKLPFERLAFVLSSNSIKHC [L21I], which protein stability index is on record?
A: 3.4

Q: For TGEFLKLPFERLAFVLSSNSSKHC [L21S], which protein stability index is on record?
A: 1.44

Q: With TGEFLKLPFERLAFVLSSNSMKHC [L21M] as the variant, how does the protein stability index read?
A: 3.88

Q: Which protein stability index does the source give for TGEFLKLPFERLAFVLSSNSQKHC [L21Q] here?
A: 1.91

Q: With TGEFLKLPFERLAFVLSSNSNKHC [L21N] as the variant, how does the protein stability index read?
A: 1.88

Q: Which protein stability index does the source give for TGEFLKLPFERLAFVLSSNSEKHC [L21E] here?
A: 2.45

Q: For TGEFLKLPFERLAFVLSSNSYKHC [L21Y], which protein stability index is on record?
A: 2.33

Q: For TGEFLKLPFERLAFVLSSNSGKHC [L21G], which protein stability index is on record?
A: 1.75

Q: For TGEFLKLPFERLAFVLSSNSRKHC [L21R], which protein stability index is on record?
A: 1.63

Q: For TGEFLKLPFERLAFVLSSNSPKHC [L21P], which protein stability index is on record?
A: 2.39

Q: With TGEFLKLPFERLAFVLSSNSFKHC [L21F] as the variant, how does the protein stability index read?
A: 1.42

Q: With TGEFLKLPFERLAFVLSSNSAKHC [L21A] as the variant, how does the protein stability index read?
A: 2.92

Q: With TGEFLKLPFERLAFVLSSNSCKHC [L21C] as the variant, how does the protein stability index read?
A: 3.31

Q: For TGEFLKLPFERLAFVLSSNSDKHC [L21D], which protein stability index is on record?
A: 2.79

Q: Which protein stability index does the source give for TGEFLKLPFERLAFVLSSNSKKHC [L21K] here?
A: 1.26

Q: With TGEFLKLPFERLAFVLSSNSHKHC [L21H] as the variant, how does the protein stability index read?
A: 2.14

Q: With TGEFLKLPFERLAFVLSSNSVKHC [L21V] as the variant, how does the protein stability index read?
A: 1.72

Q: With TGEFLKLPFERLAFVLSSNSTKHC [L21T] as the variant, how does the protein stability index read?
A: 2.49

Q: For TGEFLKLPFERLAGVLSSNSLKHC [F14G], which protein stability index is on record?
A: 2.54

Q: Which protein stability index does the source give for TGEFLKLPFERLATVLSSNSLKHC [F14T] here?
A: 2.21

Q: For TGEFLKLPFERLAHVLSSNSLKHC [F14H], which protein stability index is on record?
A: 1.8

Q: With TGEFLKLPFERLAAVLSSNSLKHC [F14A] as the variant, how does the protein stability index read?
A: 1.42

Q: With TGEFLKLPFERLAKVLSSNSLKHC [F14K] as the variant, how does the protein stability index read?
A: 1.79

Q: For TGEFLKLPFERLAEVLSSNSLKHC [F14E], which protein stability index is on record?
A: 2.33

Q: With TGEFLKLPFERLAVVLSSNSLKHC [F14V] as the variant, how does the protein stability index read?
A: 1.13

Q: With TGEFLKLPFERLADVLSSNSLKHC [F14D] as the variant, how does the protein stability index read?
A: 1.98

Q: With TGEFLKLPFERLARVLSSNSLKHC [F14R] as the variant, how does the protein stability index read?
A: 1.4

Q: Which protein stability index does the source give for TGEFLKLPFERLAYVLSSNSLKHC [F14Y] here?
A: 2.36

Q: Which protein stability index does the source give for TGEFLKLPFERLAQVLSSNSLKHC [F14Q] here?
A: 1.66

Q: Which protein stability index does the source give for TGEFLKLPFERLAWVLSSNSLKHC [F14W] here?
A: 3.04

Q: With TGEFLKLPFERLACVLSSNSLKHC [F14C] as the variant, how does the protein stability index read?
A: 1.95

Q: For TGEFLKLPFERLAMVLSSNSLKHC [F14M], which protein stability index is on record?
A: 2.74

Q: Which protein stability index does the source give for TGEFLKLPFERLASVLSSNSLKHC [F14S] here?
A: 2.21

Q: With TGEFLKLPFERLANVLSSNSLKHC [F14N] as the variant, how does the protein stability index read?
A: 2.33

Q: With TGEFLKLPFERLAPVLSSNSLKHC [F14P] as the variant, how does the protein stability index read?
A: 2.69

Q: Which protein stability index does the source give for TGEFLKLPFERLALVLSSNSLKHC [F14L] here?
A: 2.31

Q: For TGEFLKLPFERLAFVLSSYSLKHC [N19Y], which protein stability index is on record?
A: 3.05

Q: With TGEFLKLPFERLAFVLSSVSLKHC [N19V] as the variant, how does the protein stability index read?
A: 2.24

Q: For TGEFLKLPFERLAFVLSSWSLKHC [N19W], which protein stability index is on record?
A: 3.01

Q: For TGEFLKLPFERLAFVLSSQSLKHC [N19Q], which protein stability index is on record?
A: 1.81

Q: With TGEFLKLPFERLAFVLSSMSLKHC [N19M] as the variant, how does the protein stability index read?
A: 3.78

Q: For TGEFLKLPFERLAFVLSSKSLKHC [N19K], which protein stability index is on record?
A: 2.22

Q: Which protein stability index does the source give for TGEFLKLPFERLAFVLSSLSLKHC [N19L] here?
A: 3.66

Q: For TGEFLKLPFERLAFVLSSDSLKHC [N19D], which protein stability index is on record?
A: 1.56

Q: With TGEFLKLPFERLAFVLSSRSLKHC [N19R] as the variant, how does the protein stability index read?
A: 2.56

Q: For TGEFLKLPFERLAFVLSSTSLKHC [N19T], which protein stability index is on record?
A: 2.98

Q: For TGEFLKLPFERLAFVLSSESLKHC [N19E], which protein stability index is on record?
A: 2.44

Q: With TGEFLKLPFERLAFVLSSCSLKHC [N19C] as the variant, how does the protein stability index read?
A: 4.21

Q: With TGEFLKLPFERLAFVLSSPSLKHC [N19P] as the variant, how does the protein stability index read?
A: 2.62

Q: For TGEFLKLPFERLAFVLSSGSLKHC [N19G], which protein stability index is on record?
A: 3.21

Q: Which protein stability index does the source give for TGEFLKLPFERLAFVESSNSLKHC [L16E] here?
A: 2.42

Q: Which protein stability index does the source give for TGEFLKLPFERLAFVWSSNSLKHC [L16W] here?
A: 2.23

Q: With TGEFLKLPFERLAFVRSSNSLKHC [L16R] as the variant, how does the protein stability index read?
A: 2.21

Q: Which protein stability index does the source give for TGEFLKLPFERLAFVISSNSLKHC [L16I] here?
A: 2.89

Q: With TGEFLKLPFERLAFVSSSNSLKHC [L16S] as the variant, how does the protein stability index read?
A: 2.68

Q: For TGEFLKLPFERLAFVCSSNSLKHC [L16C], which protein stability index is on record?
A: 1.39

Q: Which protein stability index does the source give for TGEFLKLPFERLAFVDSSNSLKHC [L16D] here?
A: 2.37

Q: With TGEFLKLPFERLAFVASSNSLKHC [L16A] as the variant, how does the protein stability index read?
A: 1.74

Q: For TGEFLKLPFERLAFVKSSNSLKHC [L16K], which protein stability index is on record?
A: 2.65

Q: With TGEFLKLPFERLAFVTSSNSLKHC [L16T] as the variant, how does the protein stability index read?
A: 1.75

Q: For TGEFLKLPFERLAFVQSSNSLKHC [L16Q], which protein stability index is on record?
A: 2.24

Q: With TGEFLKLPFERLAFVYSSNSLKHC [L16Y] as the variant, how does the protein stability index read?
A: 1.93

Q: Which protein stability index does the source give for TGEFLKLPFERLAFVVSSNSLKHC [L16V] here?
A: 3.18

Q: With TGEFLKLPFERLAFVNSSNSLKHC [L16N] as the variant, how does the protein stability index read?
A: 2.93

Q: With TGEFLKLPFERLAFVHSSNSLKHC [L16H] as the variant, how does the protein stability index read?
A: 1.89

Q: For TGEFLKLPFERLAFVGSSNSLKHC [L16G], which protein stability index is on record?
A: 2.23

Q: With TGEFLKLPFERLAFVMSSNSLKHC [L16M] as the variant, how does the protein stability index read?
A: 2.25

Q: For TGEFLKLPFERLAFVPSSNSLKHC [L16P], which protein stability index is on record?
A: 2.33

Q: With TGEFLKLPFERLAFVLSSNKLKHC [S20K] as the variant, how does the protein stability index read?
A: 2.43

Q: With TGEFLKLPFERLAFVLSSNTLKHC [S20T] as the variant, how does the protein stability index read?
A: 2.98

Q: For TGEFLKLPFERLAFVLSSNCLKHC [S20C], which protein stability index is on record?
A: 3.52

Q: For TGEFLKLPFERLAFVLSSNPLKHC [S20P], which protein stability index is on record?
A: 2.4

Q: Which protein stability index does the source give for TGEFLKLPFERLAFVLSSNRLKHC [S20R] here?
A: 1.87

Q: Which protein stability index does the source give for TGEFLKLPFERLAFVLSSNFLKHC [S20F] here?
A: 2.55

Q: With TGEFLKLPFERLAFVLSSNNLKHC [S20N] as the variant, how does the protein stability index read?
A: 3.25

Q: Which protein stability index does the source give for TGEFLKLPFERLAFVLSSNGLKHC [S20G] here?
A: 2.59

Q: For TGEFLKLPFERLAFVLSSNDLKHC [S20D], which protein stability index is on record?
A: 2.29

Q: With TGEFLKLPFERLAFVLSSNHLKHC [S20H] as the variant, how does the protein stability index read?
A: 1.49

Q: For TGEFLKLPFERLAFVLSSNELKHC [S20E], which protein stability index is on record?
A: 2.34

Q: Which protein stability index does the source give for TGEFLKLPFERLAFVLSSNMLKHC [S20M] here?
A: 3.42

Q: Which protein stability index does the source give for TGEFLKLPFERLAFVLSSNILKHC [S20I] here?
A: 2.7

Q: With TGEFLKLPFERLAFVLSSNLLKHC [S20L] as the variant, how does the protein stability index read?
A: 3.05

Q: Which protein stability index does the source give for TGEFLKLPFERLAFVLSSNSLKHK [C24K] here?
A: 1.61

Q: For TGEFLKLPFERLAFVLSSNSLKHQ [C24Q], which protein stability index is on record?
A: 1.6

Q: For TGEFLKLPFERLAFVLSSNSLKHR [C24R], which protein stability index is on record?
A: 2.4

Q: With TGEFLKLPFERLAFVLSSNSLKHG [C24G] as the variant, how does the protein stability index read?
A: 1.9

Q: With TGEFLKLPFERLAFVLSSNSLKHE [C24E] as the variant, how does the protein stability index read?
A: 1.81

Q: For TGEFLKLPFERLAFVLSSNSLKHL [C24L], which protein stability index is on record?
A: 2.62

Q: With TGEFLKLPFERLAFVLSSNSLKHS [C24S] as the variant, how does the protein stability index read?
A: 1.76

Q: With TGEFLKLPFERLAFVLSSNSLKHN [C24N] as the variant, how does the protein stability index read?
A: 2.94

Q: Which protein stability index does the source give for TGEFLKLPFERLAFVLSSNSLKHH [C24H] here?
A: 2.56

Q: For TGEFLKLPFERLAFVLSSNSLKHD [C24D], which protein stability index is on record?
A: 2.13

Q: With TGEFLKLPFERLAFVLSSNSLKHF [C24F] as the variant, how does the protein stability index read?
A: 3.88

Q: Which protein stability index does the source give for TGEFLKLPFERLAFVLSSNSLKHV [C24V] here?
A: 2.76
